These results are taken from article PMC4301919, “Helical Defects in MicroRNA Influence Protein Binding by TAR RNA Binding Protein”.

Data set [1] deals with T1, TRBP-ΔC-RBD1-Null (UniProt Q15633-2 9-215, K23A;K59A;K60A).
T1 sequence: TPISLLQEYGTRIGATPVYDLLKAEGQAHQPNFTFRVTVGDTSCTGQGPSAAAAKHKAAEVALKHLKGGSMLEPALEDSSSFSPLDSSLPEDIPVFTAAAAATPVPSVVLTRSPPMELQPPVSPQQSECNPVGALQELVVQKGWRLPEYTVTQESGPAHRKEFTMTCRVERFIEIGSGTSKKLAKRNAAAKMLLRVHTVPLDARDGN
Description: EMSA; apparent Kd; nH 3.0; 50 mM sodium cacodylate pH 7.0, 50 mM potassium glutamate, 5% glycerol; EMSA 0.5 pM RNA, 30 min at room temperature, gel 0.25X TBE at 10 C; CD at 10 C with 5-15 uM RNA. The settings on record: protein: recombinant; label: 5'-32P top strand (EMSA); blunt.

Data set [2] concerns the target T2, TRBP-ΔC-RBD2-Null (UniProt Q15633-2 9-215, K150A;K189A;K190A).
T2 sequence: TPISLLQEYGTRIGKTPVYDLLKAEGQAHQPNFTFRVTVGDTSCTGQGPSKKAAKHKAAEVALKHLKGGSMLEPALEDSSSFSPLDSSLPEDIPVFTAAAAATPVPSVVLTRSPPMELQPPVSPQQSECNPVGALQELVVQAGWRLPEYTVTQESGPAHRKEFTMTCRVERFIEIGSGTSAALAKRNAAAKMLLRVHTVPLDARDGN
Kind of data set: EMSA; apparent Kd; nH 3.4; 50 mM sodium cacodylate pH 7.0, 50 mM potassium glutamate, 5% glycerol; EMSA 0.5 pM RNA, 30 min at room temperature, gel 0.25X TBE at 10 C; CD at 10 C with 5-15 uM RNA. The settings on record: protein: recombinant; label: 5'-32P top strand (EMSA); blunt.

The target in data set [3] is T2, TRBP-ΔC-RBD2-Null. Description: EMSA; apparent Kd; nH 2.0; 50 mM sodium cacodylate pH 7.0, 50 mM potassium glutamate, 5% glycerol; EMSA 0.5 pM RNA, 30 min at room temperature, gel 0.25X TBE at 10 C; CD at 10 C with 5-15 uM RNA. The note with it: protein: recombinant; label: 5'-32P top strand; imperfect duplex with U-bulge and A-A mismatch.
For data set [4], the target named is T1, TRBP-ΔC-RBD1-Null. Kind of data set: EMSA; apparent Kd; nH 3.1; 50 mM sodium cacodylate pH 7.0, 50 mM potassium glutamate, 5% glycerol; EMSA 0.5 pM RNA, 30 min at room temperature, gel 0.25X TBE at 10 C; CD at 10 C with 5-15 uM RNA. The settings on record: protein: recombinant; label: 5'-32P top strand (EMSA); blunt.
Data set [5] concerns the target T2, TRBP-ΔC-RBD2-Null. Description: EMSA; apparent Kd; nH 3.2; 50 mM sodium cacodylate pH 7.0, 50 mM potassium glutamate, 5% glycerol; EMSA 0.5 pM RNA, 30 min at room temperature, gel 0.25X TBE at 10 C; CD at 10 C with 5-15 uM RNA. The note with it: protein: recombinant; label: 5'-32P top strand (EMSA); blunt.

B1: ds33 (dsRNA)
RNA 1: GGUCAGCAGUGCCUUAGCAGCACGUAAAUAUGG
RNA 2: CCAUAUUUACGUGCUGCUAAGGCACUGCUGACC
In the case of B1, the values for the Kd in data set [1] and in data set [2] were 1220 ± 70 nM and 440 ± 50 nM, respectively.

B2: miR-16-1/miR-16-1* (dsRNA)
RNA 1: UAGCAGCACGUAAAUAUUGGCG
RNA 2: CCAGUAUUAACUGUGCUGCUGAA
B2: the Kd in data set [3] amounted to 900 ± 100 nM.

B3: ds22 (dsRNA)
RNA 1: GUCAGCAGUGCCUUAGCAGCAC
RNA 2: GUGCUGCUAAGGCACUGCUGAC
Take B3: the results for the Kd in data set [4] and in data set [5] were 2290 ± 80 nM and 340 ± 10 nM, respectively.
